In publication PMC2173740 (The Journal of Cell Biology, 2003):
“And” between values parts separate entries of the source, which are not always exact repeats. Equal entries are not always repeated.

Key:
[1] = biological target: 86-kD fragment of Toc159 (pea (endogenous in pea chloroplast outer envelope)); test: subunit quantification by immunoblot
[2] = biological target: 86-kD fragment of Toc159 (pea (endogenous in pea chloroplast outer envelope)); test: subunit quantification by Coomassie staining
[3] = biological target: 86-kD fragment of Toc159 (pea (endogenous in pea chloroplast outer envelope)); test: subunit quantification by radioactive NEM labelling of cysteines
Toc75 = biological target: T1, Toc75 (pea (endogenous in pea chloroplast …, UniProt Q43715 132-809)); test: co-sedimentation
T1 sequence (looked up): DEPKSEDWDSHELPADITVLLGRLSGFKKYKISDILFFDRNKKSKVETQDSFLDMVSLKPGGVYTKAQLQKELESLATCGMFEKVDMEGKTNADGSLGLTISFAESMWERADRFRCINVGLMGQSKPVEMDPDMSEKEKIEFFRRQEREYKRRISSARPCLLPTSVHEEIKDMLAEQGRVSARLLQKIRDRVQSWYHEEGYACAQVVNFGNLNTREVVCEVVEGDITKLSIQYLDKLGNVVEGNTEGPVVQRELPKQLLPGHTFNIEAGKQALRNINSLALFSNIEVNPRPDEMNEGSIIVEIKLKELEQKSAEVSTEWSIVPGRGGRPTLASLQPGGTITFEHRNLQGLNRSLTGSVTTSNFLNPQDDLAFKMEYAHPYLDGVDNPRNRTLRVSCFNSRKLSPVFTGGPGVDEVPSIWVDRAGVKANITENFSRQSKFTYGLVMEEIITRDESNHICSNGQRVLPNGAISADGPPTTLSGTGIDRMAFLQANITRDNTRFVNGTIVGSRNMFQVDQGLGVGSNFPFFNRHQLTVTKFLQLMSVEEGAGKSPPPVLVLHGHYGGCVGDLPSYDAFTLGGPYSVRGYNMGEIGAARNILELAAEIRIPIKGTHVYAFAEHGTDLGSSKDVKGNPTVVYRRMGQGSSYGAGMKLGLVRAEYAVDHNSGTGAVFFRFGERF

Row | Binder | stoichiometry N (molecules per Toc159) [1] | stoichiometry N (molecules per Toc159) [2] | stoichiometry N (molecules per Toc159) [3] | binding result (Toc75)
1 | Toc75 (natural protein) DEPKSEDWDSHELPADITVLLGRLSGFKKYKISDILFFDRNKKSKVETQDSFLDMVSLKPGGVYTKAQLQKELESLATCGMFEKVDMEGKTNADGSLGLTISFAESMWERADRFRCINVGLMGQSKPVEMDPDMSEKEKIEFFRRQEREYKRRISSARPCLLPTSVHEEIKDMLAEQGRVSARLLQKIRDRVQSWYHEEGYACAQVVNFGNLNTREVVCEVVEGDITKLSIQYLDKLGNVVEGNTEGPVVQRELPKQLLPGHTFNIEAGKQALRNINSLALFSNIEVNPRPDEMNEGSIIVEIKLKELEQKSAEVSTEWSIVPGRGGRPTLASLQPGGTITFEHRNLQGLNRSLTGSVTTSNFLNPQDDLAFKMEYAHPYLDGVDNPRNRTLRVSCFNSRKLSPVFTGGPGVDEVPSIWVDRAGVKANITENFSRQSKFTYGLVMEEIITRDESNHICSNGQRVLPNGAISADGPPTTLSGTGIDRMAFLQANITRDNTRFVNGTIVGSRNMFQVDQGLGVGSNFPFFNRHQLTVTKFLQLMSVEEGAGKSPPPVLVLHGHYGGCVGDLPSYDAFTLGGPYSVRGYNMGEIGAARNILELAAEIRIPIKGTHVYAFAEHGTDLGSSKDVKGNPTVVYRRMGQGSSYGAGMKLGLVRAEYAVDHNSGTGAVFFRFGERF | 4 to 5 | 4 | 4 | –
2 | Toc34 (natural protein, UniProt Q41009 1-310, looked up) MASQQQTVREWSGINTFAPATQTKLLELLGNLKQEDVNSLTILVMGKGGVGKSSTVNSIIGERVVSISPFQSEGPRPVMVSRSRAGFTLNIIDTPGLIEGGYINDMALNIIKSFLLDKTIDVLLYVDRLDAYRVDNLDKLVAKAITDSFGKGIWNKAIVALTHAQFSPPDGLPYDEFFSKRSEALLQVVRSGASLKKDAQASDIPVVLIENSGRCNKNDSDEKVLPNGIAWIPHLVQTITEVALNKSESIFVDKNLIDGPNPNQRGKLWIPLIFALQYLFLAKPIEALIRRDIATETKPAWETRDVGDRK | 4 and 6 | 4 to 6 | 4 to 5 | binds
